We go through one molecule from PMC4250914 (Scientific Reports, 2014).

This assay concerns the target T1, His-VPS41 (human, UniProt P49754 1-854).
T1 sequence: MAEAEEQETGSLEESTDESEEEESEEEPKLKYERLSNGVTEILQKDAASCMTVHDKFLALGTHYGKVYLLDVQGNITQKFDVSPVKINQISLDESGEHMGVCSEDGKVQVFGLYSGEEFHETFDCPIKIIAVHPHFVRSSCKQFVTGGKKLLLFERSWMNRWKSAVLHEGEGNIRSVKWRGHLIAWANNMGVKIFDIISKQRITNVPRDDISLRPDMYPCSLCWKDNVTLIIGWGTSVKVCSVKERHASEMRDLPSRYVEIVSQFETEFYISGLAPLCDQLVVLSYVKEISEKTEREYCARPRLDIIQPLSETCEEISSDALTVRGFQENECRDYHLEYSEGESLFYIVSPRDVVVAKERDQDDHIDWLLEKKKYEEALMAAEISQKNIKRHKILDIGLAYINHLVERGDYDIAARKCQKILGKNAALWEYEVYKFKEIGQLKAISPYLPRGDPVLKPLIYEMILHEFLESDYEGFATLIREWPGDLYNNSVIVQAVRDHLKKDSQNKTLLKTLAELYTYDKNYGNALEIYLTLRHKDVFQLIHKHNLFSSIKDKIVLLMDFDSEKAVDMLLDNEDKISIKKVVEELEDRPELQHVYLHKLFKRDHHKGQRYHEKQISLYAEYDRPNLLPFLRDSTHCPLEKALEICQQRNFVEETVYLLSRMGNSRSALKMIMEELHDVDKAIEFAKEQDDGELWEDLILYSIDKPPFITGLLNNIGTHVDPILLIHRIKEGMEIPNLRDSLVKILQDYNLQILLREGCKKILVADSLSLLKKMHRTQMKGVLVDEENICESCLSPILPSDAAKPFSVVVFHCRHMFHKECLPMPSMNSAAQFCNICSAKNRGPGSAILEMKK
Briefly: pull-down.

B1: GST-RILP (natural protein)
chain: MEPRRAAPGVPGWGSREAAGSASAAELVYHLAGALGTELQDLARRFGPEAAAGLVPLVVRALELLEQAAVGPAPDSLQVSAQPAEQELRRLREENERLRRELRAGPQEERALLRQLKEVTDRQRDELRAHNRDLRQRGQETEALQEQLQRLLLVNAELRHKLAAMQTQLRAAQDRERERQQPGEAATPQAKERARGQAGRPGHQHGQEPEWATAGAGAPGNPEDPAEAAQQLGRPSEAGQCRFSREEFEQILQERNELKAKVFLLKEELAYFQRELLTDHRVPGLLLEAMKVAVRKQRKKIKAKMLGTPEEAESSEDEAGPWILLSDDKGDHPPPPESKIQSFFGLWYRGKAESSEDETSSPAPSKLGGEEEAQPQSPAPDPPCSALHEHLCLGASAAPEA
Turning to B1, the binding result is listed as “binds”.
